# Data: publication PMC12212125, “Constitutively active Arabidopsis cryptochrome two alleles identified using yeast selection and deep mutational scanning” (The Journal of Biological Chemistry, 2025)
# B1: Arabidopsis thaliana cryptochrome 2 (CRY2, UniProt Q96524), residues 1-535 fused after the Gal4 DNA-binding domain (Gal4BD-CRY2(535)); mutagenized window 321-412, Q96524 (parent)
# chain: MKMDKKTIVWFRRDLRIEDNPALAAAAHEGSVFPVFIWCPEEEGQFYPGRASRWWMKQSLAHLSQSLKALGSDLTLIKTHNTISAILDCIRVTGATKVVFNHLYDPVSLVRDHTVKEKLVERGISVQSYNGDLLYEPWEIYCEKGKPFTSFNSYWKKCLDMSIESVMLPPPWRLMPITAAAEAIWACSIEELGLENEAEKPSNALLTRAWSPGWSNADKLLNEFIEKQLIDYAKNSKKVVGNSTSLLSPYLHFGEISVRHVFQCARMKQIIWARDKNSEGEESADLFLRGIGLREYSRYICFNFPFTHEQSLLSHLRFFPWDADVDKFKAWRQGRTGYPLVDAGMRELWATGWMHNRIRVIVSSFAVKFLLLPWKWGMKYFWDTLLDADLECDILGWQYISGSIPDGHELDRLDNPALQGAKYDPEGEYIRQWLPELARLPTEWIHHPWDAPLTVLKASGVELGTNYAKPIVDIDTARELLAKAISRTREAQIMIGAAPDEIVADSFEALGANTIKEPGLCPSVSSNDQQVPSAV
# Variants of: B1
# Experiment: yeast two-hybrid growth selection (MaV203; Gal4BD-CRY2(1-535) library x Gal4AD-CIB1; URA3 reporter on SC -Trp/-Leu/-Ura) in the dark, deep sequencing before and after selection, Enrich2 scoring; three independent screens (one at 48 h, two …)
# Settings: with CIB1 (CRYPTOCHROME-INTERACTING BASIC-HELIX-LOOP-HELIX 1), dark (no blue light), screens 1, 3 and 4, Svar > 0 = enriched under dark selection for CRY2-CIB1 two-hybrid growth (URA3 reporter), < 0 = depleted, relative to wild type (whose scores are 0). 'The Enrich2 software calculates, parent: 0, not an affinity, scale: Enrich2 score, numbering: uniprot, sequence starts at 1
row,Variant,enrichment
1,A330G,-2.23
2,A330T,-0.56
3,A330P,-1.93
4,A330D,-0.577
5,A330S,-0.0962
6,A330V,-1.26
7,W321C,-0.0126
8,W321G,-0.157
9,W321L,-1.18
10,W321R,0.946
11,G337V,-1.13
12,G337C,-1.19
13,G337S,-0.736
14,G337R,-0.665
15,Q333L,-0.0861
16,Q333K,-0.851
17,Q333R,1.48
18,Q333P,-1.44
19,Q333H,0.227
20,R335K,0.204
21,R335T,1.74
22,R335G,-1.19
23,R335S,-0.537

row,Variant,enrichment
1,V325D,-1.89
2,V325G,0.408
3,V325A,-0.239
4,V325F,-0.532
5,V325I,-0.344
6,A323D,0.677
7,A323T,-0.65
8,A323V,-0.61
9,A323S,0.117
10,K327T,-0.117
11,K327Q,0.397
12,K327R,0.118
13,K327E,-1.63
14,K327M,-0.448
15,K327N,-0.0863
16,G334S,-0.925
17,G334A,-1.45
18,G334V,-0.578
19,G334C,0.0705
20,D322V,0.286
21,D322E,0.472
22,D322A,-0.241
23,D322Y,-0.959

row,Variant,enrichment
1,D322G,0.357
2,D322N,0.239
3,F328C,-1.53
4,F328Y,-0.296
5,F328P,0.453
6,F328I,-1.51
7,F328L,-0.872
8,F328S,-1.95
9,F328V,-2.43
10,P339L,-1.02
11,W331L,1
12,W331R,-1.72
13,W331C,-0.871
14,W331G,-1.69
15,K329M,0.675
16,K329E,-0.264
17,K329T,0.41
18,K329R,0.366
19,K329N,0.546
20,T336N,-0.274
21,T336A,-1.84
22,T336P,-0.907
23,T336I,-1.58

row,Variant,enrichment
1,T336S,0.494
2,D326E,-1.28
3,D326V,-0.872
4,D326G,0.327
5,D326A,-0.893
6,D326Y,-0.976
7,D326N,-0.256
8,D324N,-0.413
9,D324G,-0.17
10,D324V,2.44
11,D324E,0.371
12,D324Y,0.863
13,D324A,0.0228
14,Y338N,-1.68
15,Y338D,-1.31
16,Y338F,-0.84
17,Y338C,-1.57
18,Y338S,-0.758
19,Y338H,-0.584
20,R332K,-1.23
21,R332I,-0.681
22,R332G,-0.0201
23,R332S,0.5

# Variants of: B1
# Experiment: yeast two-hybrid, quantitative GalUAS-lacZ (beta-galactosidase) reporter assay
# Settings: with itself; dark; strain AH109; parent: 25; read off a plot
row,Variant,response [Miller units]
1,MKMDKKTIVWFRRDLRIEDNPALAAAAHEGSVFPVFIWCPEEEGQFYPGRASRWWMKQSLAHLSQSLKALGSDLTLIKTHNTISAILDCIRVTGATKVVFNHLYDPVSLVRDHTVKEKLVERGISVQSYNGDLLYEPWEIYCEKGKPFTSFNSYWKKCLDMSIESVMLPPPWRLMPITAAAEAIWACSIEELGLENEAEKPSNALLTRAWSPGWSNADKLLNEFIEKQLIDYAKNSKKVVGNSTSLLSPYLHFGEISVRHVFQCARMKQIIWARDKNSEGEESADLFLRGIGLREYSRYICFNFPFTHEQSLLSHLRFFPWDADVDKFKAWRQGRTGYPLVDAGMRELWATGWMHNRIRVIVSSFAVKFLLLPWKWGMKYFWDTLLDADLECAILGWQYISGSIPDGHELDRLDNPALQGAKYDPEGEYIRQWLPELARLPTEWIHHPWDAPLTVLKASGVELGTNYAKPIVDIDTARELLAKAISRTREAQIMIGAAPDEIVADSFEALGANTIKEPGLCPSVSSNDQQVPSAV [chain 1 D393A],160
2,MKMDKKTIVWFRRDLRIEDNPALAAAAHEGSVFPVFIWCPEEEGQFYPGRASRWWMKQSLAHLSQSLKALGSDLTLIKTHNTISAILDCIRVTGATKVVFNHLYDPVSLVRDHTVKEKLVERGISVQSYNGDLLYEPWEIYCEKGKPFTSFNSYWKKCLDMSIESVMLPPPWRLMPITAAAEAIWACSIEELGLENEAEKPSNALLTRAWSPGWSNADKLLNEFIEKQLIDYAKNSKKVVGNSTSLLSPYLHFGEISVRHVFQCARMKQIIWARDKNSEGEESADLFLRGIGLREYSRYICFNFPFTHEQSLLSHLRFFPWDADVDKFKAWRQGRTGYPLVDAGMRELWATGWMHNRIRVIVSSFAVKFLLLPWKWGMKYFWDTLLDADLECSILGWQYISGSIPDGHELDRLDNPALQGAKYDPEGEYIRQWLPELARLPTEWIHHPWDAPLTVLKASGVELGTNYAKPIVDIDTARELLAKAISRTREAQIMIGAAPDEIVADSFEALGANTIKEPGLCPSVSSNDQQVPSAV [chain 1 D393S],170
3,MKMDKKTIVWFRRDLRIEDNPALAAAAHEGSVFPVFIWCPEEEGQFYPGRASRWWMKQSLAHLSQSLKALGSDLTLIKTHNTISAILDCIRVTGATKVVFNHLYDPVSLVRDHTVKEKLVERGISVQSYNGDLLYEPWEIYCEKGKPFTSFNSYWKKCLDMSIESVMLPPPWRLMPITAAAEAIWACSIEELGLENEAEKPSNALLTRAWSPGWSNADKLLNEFIEKQLIDYAKNSKKVVGNSTSLLSPYLHFGEISVRHVFQCARMKQIIWARDKNSEGEESADLFLRGIGLREYSRYICFNFPFTHEQSLLSHLRFFPWDADVDKFKAWRQGRTGYPLVDAGMRELWATGWMHNRIRVIVSSFAVKFLLLPAKWGMKYFWDTLLDADLECDILGWQYISGSIPDGHELDRLDNPALQGAKYDPEGEYIRQWLPELARLPTEWIHHPWDAPLTVLKASGVELGTNYAKPIVDIDTARELLAKAISRTREAQIMIGAAPDEIVADSFEALGANTIKEPGLCPSVSSNDQQVPSAV [chain 1 W374A],170
4,MKMDKKTIVWFRRDLRIEDNPALAAAAHEGSVFPVFIWCPEEEGQFYPGRASRWWMKQSLAHLSQSLKALGSDLTLIKTHNTISAILDCIRVTGATKVVFNHLYDPVSLVRDHTVKEKLVERGISVQSYNGDLLYEPWEIYCEKGKPFTSFNSYWKKCLDMSIESVMLPPPWRLMPITAAAEAIWACSIEELGLENEAEKPSNALLTRAWSPGWSNADKLLNEFIEKQLIDYAKNSKKVVGNSTSLLSPYLHFGEISVRHVFQCARMKQIIWARDKNSEGEESADLFLRGIGLREYSRYICFNFPFTHEQSLLSHLRFFPWDADVDKFKAWRQGRTGYPLVDAGMRELWATGWMHNRIRVIVSSFAVKFLLLPWKWGRKYFWDTLLDADLECDILGWQYISGSIPDGHELDRLDNPALQGAKYDPEGEYIRQWLPELARLPTEWIHHPWDAPLTVLKASGVELGTNYAKPIVDIDTARELLAKAISRTREAQIMIGAAPDEIVADSFEALGANTIKEPGLCPSVSSNDQQVPSAV [chain 1 M378R],210

# Same assay, conditions: with itself; light; strain AH109; parent: 220; read off a plot
row,Variant,response [Miller units]
1,MKMDKKTIVWFRRDLRIEDNPALAAAAHEGSVFPVFIWCPEEEGQFYPGRASRWWMKQSLAHLSQSLKALGSDLTLIKTHNTISAILDCIRVTGATKVVFNHLYDPVSLVRDHTVKEKLVERGISVQSYNGDLLYEPWEIYCEKGKPFTSFNSYWKKCLDMSIESVMLPPPWRLMPITAAAEAIWACSIEELGLENEAEKPSNALLTRAWSPGWSNADKLLNEFIEKQLIDYAKNSKKVVGNSTSLLSPYLHFGEISVRHVFQCARMKQIIWARDKNSEGEESADLFLRGIGLREYSRYICFNFPFTHEQSLLSHLRFFPWDADVDKFKAWRQGRTGYPLVDAGMRELWATGWMHNRIRVIVSSFAVKFLLLPWKWGMKYFWDTLLDADLECAILGWQYISGSIPDGHELDRLDNPALQGAKYDPEGEYIRQWLPELARLPTEWIHHPWDAPLTVLKASGVELGTNYAKPIVDIDTARELLAKAISRTREAQIMIGAAPDEIVADSFEALGANTIKEPGLCPSVSSNDQQVPSAV [chain 1 D393A],180
2,MKMDKKTIVWFRRDLRIEDNPALAAAAHEGSVFPVFIWCPEEEGQFYPGRASRWWMKQSLAHLSQSLKALGSDLTLIKTHNTISAILDCIRVTGATKVVFNHLYDPVSLVRDHTVKEKLVERGISVQSYNGDLLYEPWEIYCEKGKPFTSFNSYWKKCLDMSIESVMLPPPWRLMPITAAAEAIWACSIEELGLENEAEKPSNALLTRAWSPGWSNADKLLNEFIEKQLIDYAKNSKKVVGNSTSLLSPYLHFGEISVRHVFQCARMKQIIWARDKNSEGEESADLFLRGIGLREYSRYICFNFPFTHEQSLLSHLRFFPWDADVDKFKAWRQGRTGYPLVDAGMRELWATGWMHNRIRVIVSSFAVKFLLLPWKWGMKYFWDTLLDADLECSILGWQYISGSIPDGHELDRLDNPALQGAKYDPEGEYIRQWLPELARLPTEWIHHPWDAPLTVLKASGVELGTNYAKPIVDIDTARELLAKAISRTREAQIMIGAAPDEIVADSFEALGANTIKEPGLCPSVSSNDQQVPSAV [chain 1 D393S],160
3,MKMDKKTIVWFRRDLRIEDNPALAAAAHEGSVFPVFIWCPEEEGQFYPGRASRWWMKQSLAHLSQSLKALGSDLTLIKTHNTISAILDCIRVTGATKVVFNHLYDPVSLVRDHTVKEKLVERGISVQSYNGDLLYEPWEIYCEKGKPFTSFNSYWKKCLDMSIESVMLPPPWRLMPITAAAEAIWACSIEELGLENEAEKPSNALLTRAWSPGWSNADKLLNEFIEKQLIDYAKNSKKVVGNSTSLLSPYLHFGEISVRHVFQCARMKQIIWARDKNSEGEESADLFLRGIGLREYSRYICFNFPFTHEQSLLSHLRFFPWDADVDKFKAWRQGRTGYPLVDAGMRELWATGWMHNRIRVIVSSFAVKFLLLPAKWGMKYFWDTLLDADLECDILGWQYISGSIPDGHELDRLDNPALQGAKYDPEGEYIRQWLPELARLPTEWIHHPWDAPLTVLKASGVELGTNYAKPIVDIDTARELLAKAISRTREAQIMIGAAPDEIVADSFEALGANTIKEPGLCPSVSSNDQQVPSAV [chain 1 W374A],180
4,MKMDKKTIVWFRRDLRIEDNPALAAAAHEGSVFPVFIWCPEEEGQFYPGRASRWWMKQSLAHLSQSLKALGSDLTLIKTHNTISAILDCIRVTGATKVVFNHLYDPVSLVRDHTVKEKLVERGISVQSYNGDLLYEPWEIYCEKGKPFTSFNSYWKKCLDMSIESVMLPPPWRLMPITAAAEAIWACSIEELGLENEAEKPSNALLTRAWSPGWSNADKLLNEFIEKQLIDYAKNSKKVVGNSTSLLSPYLHFGEISVRHVFQCARMKQIIWARDKNSEGEESADLFLRGIGLREYSRYICFNFPFTHEQSLLSHLRFFPWDADVDKFKAWRQGRTGYPLVDAGMRELWATGWMHNRIRVIVSSFAVKFLLLPWKWGRKYFWDTLLDADLECDILGWQYISGSIPDGHELDRLDNPALQGAKYDPEGEYIRQWLPELARLPTEWIHHPWDAPLTVLKASGVELGTNYAKPIVDIDTARELLAKAISRTREAQIMIGAAPDEIVADSFEALGANTIKEPGLCPSVSSNDQQVPSAV [chain 1 M378R],240
